Measured values from patent US11667688B2, “Glucagon derivative and a composition comprising a long acting conjugate of the same” (HANMI PHARM. CO., LTD., priority 2015, dated 2023).
Bridge positions count the residues as written; N and C are the ends. Square brackets hold non-standard residues; d marks the D form. Ends that are not written are not given here. Aib = CC(C)(N)C(=O)O

These substances were tested against T1, human glucagon receptors (Homo sapiens, UniProt P47871) (assay: cAMP activity of glucagon derivatives in CHO cell line transfected with human glucagon receptor (LANCE cAMP kit)). Conditions: cAMP EC50 compared with that of native glucagon; CHO cells with human glucagon receptor.
T1 construct: a region corresponding to Open Reading Frame (ORF) in the cDNA; expressed in transfected cells
T1 sequence (P47871 26-477): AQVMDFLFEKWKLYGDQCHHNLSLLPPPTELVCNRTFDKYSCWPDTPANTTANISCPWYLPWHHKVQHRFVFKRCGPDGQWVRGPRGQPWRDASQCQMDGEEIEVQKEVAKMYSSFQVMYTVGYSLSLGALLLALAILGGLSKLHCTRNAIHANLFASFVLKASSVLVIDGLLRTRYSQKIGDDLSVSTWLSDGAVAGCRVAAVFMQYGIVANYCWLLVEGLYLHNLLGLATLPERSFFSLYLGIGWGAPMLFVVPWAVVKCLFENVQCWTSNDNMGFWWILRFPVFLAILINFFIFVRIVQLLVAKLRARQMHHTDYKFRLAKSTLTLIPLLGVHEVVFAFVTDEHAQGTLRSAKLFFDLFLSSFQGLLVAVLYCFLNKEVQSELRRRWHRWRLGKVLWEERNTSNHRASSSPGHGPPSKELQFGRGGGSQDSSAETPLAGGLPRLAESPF
Assay type: cell-based
Method: PCR was performed using a region corresponding to Open Reading Frame (ORF) in the cDNA (OriGene Technologies, Inc., USA) of human glucagon receptor gene as a template along with the following forward and reverse primers (SEQ ID NOS: 47 and 48, respectively), which include each of the EcoRI and XhoI restriction sites.
The PCR product was cloned into a known animal cell expression vector, x0GC/dhfr, to prepare a recombinant vector x0GC/GCGR.
CHO DG44 cell line cultured in DMEM/F12 (10% FBS) medium was transfected with the recombinant vector x0GC/GCGR using LIPOFECTAMINE®, and cultured in a selection medium containing G418 (1 mg/mL) and methotraxate (10 nM).
Specifically, the transfected cell line was subcultured 3 to 4 times a week, aliquoted into a 384-well plate in an amount of 6×10^3 cell lines/well, and cultured for 24 hours. Native glucagon and glucagon derivatives were suspended in Hank's balanced salt solution (HBSS) buffer containing 0.5 mM of 3-isobutyl-1-methylxanthine (IBMX), 0.1% bovine serum albumin (BSA), and 5 mM 4-(2-hydroxyethyl)-1-piperazineethanesulfonic acid (HEPES) with the culture cells, at concentrations of 200 nM and 1600 nM, respectively, continuously subjected into a 4-fold dilution 10 times, applied to a cAMP assay kit (LANCE cAMP 384 kit, PerkinElmer), and added to the cultured cells, and their fluorescence value was measured.

Row | Substance | In vitro Activity (Relative Activity of SEQ ID NO: 1, %) [%]
1 | WXQGTFTSDYSKCLDERRAKDFVQWLMNT (W[Aib]QGTFTSDYSKCLDERRAKDFVQWLMNT; bridge 16-20) [SEQ ID NO: 30, glucagon derivative, X = Aib] | 0.3
2 | YXQGTFTSDYSKYLDCRRAQVFVQWLMRT (Y[Aib]QGTFTSDYSKYLDCRRAQVFVQWLMRT) [SEQ ID NO: 16, glucagon derivative, X = Aib] | 4.2
3 | YXQGTFVSDCSKYLDERRAKDFVQWLMNT (Y[Aib]QGTFVSDCSKYLDERRAKDFVQWLMNT; bridge 16-20) [SEQ ID NO: 39, glucagon derivative, X = Aib] | 3.7
4 | YXQGTFVSDYSKYLDECRAKDFVQWLMNT (Y[Aib]QGTFVSDYSKYLDECRAKDFVQWLMNT; bridge 16-20) [SEQ ID NO: 27, glucagon derivative, X = Aib] | 93.6
5 | YXQGTFTSDYSKYLDEKRAKCFVQWLMNT (Y[Aib]QGTFTSDYSKYLDEKRAKCFVQWLMNT; bridge 16-20) [SEQ ID NO: 25, glucagon derivative, X = Aib] | 46.9
6 | YXQGTFTSDYSKYLCEKRAQDFVVWLMNT (Y[Aib]QGTFTSDYSKYLCEKRAQDFVVWLMNT) [SEQ ID NO: 15, glucagon derivative, X = Aib] | 1.1
7 | YXQGTFTSDYSKCLDERRAKDFVQWLMNT (Y[Aib]QGTFTSDYSKCLDERRAKDFVQWLMNT; bridge 16-20) [SEQ ID NO: 29, glucagon derivative, X = Aib] | 61.3
8 | WXQGTFVSDYSKYLDECRAKDFVQWLMNT (W[Aib]QGTFVSDYSKYLDECRAKDFVQWLMNT; bridge 16-20) [SEQ ID NO: 28, glucagon derivative, X = Aib] | <0.1
9 | HSQGTFTSDYSKYLDCERAQDFVQWLMNT (glucagon derivative) [SEQ ID NO: 3] | 6.1
10 | YXQGTFCSDYSKYLDERRAKDFVQWLMNT (Y[Aib]QGTFCSDYSKYLDERRAKDFVQWLMNT; bridge 16-20) [SEQ ID NO: 41, glucagon derivative, X = Aib] | 45.2
11 | YXQGTFTSDYSKYLDSRRAQDFVQWLMNT (Aib at position 2; glucagon derivative; (2) Xaa is aminoisobutyric acid (Aib)) [SEQ ID NO: 33, glucagon derivative, X = Aib] | 108.2
12 | HSQGTFTSDYSKYLDSCEADDFVQWLMNT (glucagon derivative) [SEQ ID NO: 6] | <0.1
13 | YXQGTFTSDYSKYLDEKRCKEFVQWLMNT (Y[Aib]QGTFTSDYSKYLDEKRCKEFVQWLMNT; bridge 16-20) [SEQ ID NO: 22, glucagon derivative, X = Aib] | 147.8
14 | YXQGTFTSDYSKYLDSCDADDFVVWLINT (Y[Aib]QGTFTSDYSKYLDSCDADDFVVWLINT) [SEQ ID NO: 10, glucagon derivative, X = Aib] | <0.1
15 | YXQGTFTSDYSCYLDSRRAQDFVQWLMNT (Y[Aib]QGTFTSDYSCYLDSRRAQDFVQWLMNT) [SEQ ID NO: 13, glucagon derivative, X = Aib] | 5.2
16 | YXQGTFTSDCSKYLDERRAKEFVQWLMNT (Y[Aib]QGTFTSDCSKYLDERRAKEFVQWLMNT; bridge 16-20) [SEQ ID NO: 36, glucagon derivative, X = Aib] | 9.9
17 | YSQGTFTSDYSKYLDSCEADDFVQWLMNT (glucagon derivative) [SEQ ID NO: 7] | <0.1
18 | YXQGTFTSDYSKYLDCKRAKEFVQWLMNT [SEQ ID NO: 14] (Y[Aib]QGTFTSDYSKYLDCKRAKEFVQWLMNT; not fully specified) [glucagon derivative, X = Aib] | 18.1
19 | YXQGTFTSDYSKYLCEKRAKEFVQWLMNT (Y[Aib]QGTFTSDYSKYLCEKRAKEFVQWLMNT; bridge 16-20) [SEQ ID NO: 19, glucagon derivative, X = Aib] | 12.1
20 | YXQGTFTSDYSKYLDSCDAQDFVVWLINT (Y[Aib]QGTFTSDYSKYLDSCDAQDFVVWLINT) [SEQ ID NO: 9, glucagon derivative, X = Aib] | <0.1
21 | WXQGTFTSDYSKYLDECRAKDFVQWLMNT (W[Aib]QGTFTSDYSKYLDECRAKDFVQWLMNT; bridge 16-20) [SEQ ID NO: 26, glucagon derivative, X = Aib] | 1.0
22 | WXQGTFTSDYSKYCDERRAKEFVQWLMNT (W[Aib]QGTFTSDYSKYCDERRAKEFVQWLMNT; bridge 16-20) [SEQ ID NO: 34, glucagon derivative, X = Aib] | 0.2
23 | YXQGTFTSDYSKYLDEKRAKEFVQWLMNTC (Y[Aib]QGTFTSDYSKYLDEKRAKEFVQWLMNTC; bridge 16-20) [SEQ ID NO: 12, glucagon derivative, X = Aib] | 56.3
24 | YXQGTFTSDYSKYCDERRAKEFVQWLMNT (Y[Aib]QGTFTSDYSKYCDERRAKEFVQWLMNT; bridge 16-20) [SEQ ID NO: 35, glucagon derivative, X = Aib] | 17.7
25 | YXQGTFVSDYSKYLDERRAKDFVQWLMNTC (Y[Aib]QGTFVSDYSKYLDERRAKDFVQWLMNTC; bridge 16-20) [SEQ ID NO: 40, glucagon derivative, X = Aib] | 40.8
26 | -SQGTFTSDYSKYLDECRAKEFVQWLMNT (bridge 15-19; also: name begins with '-': N-terminal residue before chain not given here) [SEQ ID NO: 32, glucagon derivative, no residue at position 1] | 0.7
27 | YXQGTFCSDYSKYLDERRAKEFVQWLMNT (Y[Aib]QGTFCSDYSKYLDERRAKEFVQWLMNT; bridge 16-20) [SEQ ID NO: 38, glucagon derivative, X = Aib] | 167.3

Results, then the substance that gave them:

Row | In vitro Activity (Relative Activity of SEQ ID NO: 1, %) [%] | Substance
28 | 225.5 | YXQGTFTSDYSKYLDERRAKEFVQWLMNTC (Y[Aib]QGTFTSDYSKYLDERRAKEFVQWLMNTC; bridge 16-20) [SEQ ID NO: 37, glucagon derivative, X = Aib]
29 | 299.7 | YXQGTFTSDYSKYLDECRAKEFVQWLMNT (Y[Aib]QGTFTSDYSKYLDECRAKEFVQWLMNT; bridge 16-20) [SEQ ID NO: 20, glucagon derivative, X = Aib]
30 | 57.8 | YXQGTFTSDYSKYLDEKCAKEFVQWLMNT [SEQ ID NO: 21] (Y[Aib]QGTFTSDYSKYLDEKCAKEFVQWLMNT; bridge 16-20) [glucagon derivative, X = Aib]
31 | 4.6 | YXQGTFTSDYSKYLDEKCAKEFVQWLMNT [SEQ ID NO: 11] (Y[Aib]QGTFTSDYSKYLDEKCAKEFVQWLMNT; not fully specified) [glucagon derivative, X = Aib]
32 | 0.6 | HSQGTFTSDYSKYLDCDRAQDFVQWLMNT (glucagon derivative) [SEQ ID NO: 2]
33 | <0.1 | YXQGTFTSDYSKYLDSRRACDFRLWLMNT (Y[Aib]QGTFTSDYSKYLDSRRACDFRLWLMNT) [SEQ ID NO: 18, glucagon derivative, X = Aib]
34 | 75.4 | YXQGTFTSDYSKYLDSRRAQDFVQWLMNTC (Aib at position 2; glucagon derivative; (2) Xaa is aminoisobutyric acid (Aib)) [SEQ ID NO: 44, glucagon derivative, X = Aib]
35 | <0.1 | YXQGTFTSDYSKYLDSCDAQDFVQWLINT (Y[Aib]QGTFTSDYSKYLDSCDAQDFVQWLINT) [SEQ ID NO: 8, glucagon derivative, X = Aib]
36 | 6.3 | YXQGTFTSDYSKYLDCKRAKEFVQWLMNT (Y[Aib]QGTFTSDYSKYLDCKRAKEFVQWLMNT; bridge 17-21) [SEQ ID NO: 31, glucagon derivative, X = Aib]
37 | 58.0 | YXQGTFTSDYSKCLDEKRAKEFVQWLMNT (Y[Aib]QGTFTSDYSKCLDEKRAKEFVQWLMNT; bridge 16-20) [SEQ ID NO: 24, glucagon derivative, X = Aib]
38 | 76.8 | YXQGTFTSDYSKYCDEKRAKEFVQWLMNT (Y[Aib]QGTFTSDYSKYCDEKRAKEFVQWLMNT; bridge 16-20) [SEQ ID NO: 23, glucagon derivative, X = Aib]
39 | 23.2 | YXQGTFTSDYSKYLDCVRAQDFVQWLMRT (Y[Aib]QGTFTSDYSKYLDCVRAQDFVQWLMRT) [SEQ ID NO: 17, glucagon derivative, X = Aib]
40 | 37.9 | YXQGTFCSDYSKYLDSRRAQDFVQWLMNT (Y[Aib]QGTFCSDYSKYLDSRRAQDFVQWLMNT) [SEQ ID NO: 42, glucagon derivative, X = Aib]
